# Assay results taken from US20240060104A1, “ATP-PRT VARIANT WITH REDUCED FEEDBACK INHIBITION BY HISTIDINE, AND HISTIDINE-PRODUCING STRAIN EXPRESSING SAME” (DAESANG CORPORATION, priority 2020, published 2024).
# Target: T1, ATP phosphoribosyltransferase (Escherichia coli, UniProt P60757, E271K/H232T/R250H/S288P/T252L)
# T1 construct: endogenous in cells; host or cells: E. coli DS9H (chromosomal hisG); sonicated cells, centrifuged supernatant
# Type: biochemical, E. coli
# Settings: FIG. 1, compared among hisG_WT, hisG_SDM4, hisG_SDM7
# Procedure: Each strain was cultured under conditions of 30° C. and 180 rpm. When the OD600 reached 0.6, ATP-PRT expression was induced with 1 mM IPTG (final concentration) and additional culture was performed for about 4 hours. The cells obtained after culturing were sonicated and centrifuged. The obtained supernatants were used for evaluation of ATP phosphoribosyltransferase activity. […] The protein in each supernatant was quantified to match the concentration, and the enzyme activity was measured after mixing the reactants according to the reaction composition shown in Table 8 below.
# The activity was measured at 30° C. at a UV wavelength of 290 nm at 2 minute intervals for 30 minutes.
molecule,measurement,value
"hisG_SDM7: ATP-PRT variant containing H232T, R250H, T252L, E271K and S288P mutations (protein, hisG_SDM7, ATP-PRT variant containing H232T, R250H, T252L, E271K and S288P mutations) MTDNTRLRIAMQKSGRLSDDSRELLARCGIKINLHTQRLIAMAENMPIDILRVRDDDIPGLVMDGVVDLGIIGENVLEEELLNRRAQGEDPRYFTLRRLDFGGCRLSLATPVDEAWDGPLSLNGKRIATSYPHLLKRYLDQKGISFKSCLLNGSVEVAPRAGLADAICDLVSTGATLEANGLREVEVIYRSKACLIQRDGEMEESKQQLIDKLLTRIQGVIQARESKYIMMTAPTERLDEVIALLPGAEHPLILPLAGDQQRVAMHMVSSKTLFWETMEKLKALGASPILVLPIEKMME",Resistance to activity inhibition by histidine,best resistance
